Assay results: patent US20140179896A1 (published 2014)

Columns and labels:
[1] = target: T1, mouse vascular endothelial growth factor receptor-2 Fc chimera (Flk-1-Fc) (mouse, UniProt P35918 20-762); assay: radioactive equilibrium binding assay, 1 nM Flk-1-Fc, % of input bound
T1 construct: Bought from R&D Systems; also called mouse VEGFR-2; not shown: Fc part of the purchased chimera, not specified
Description: (§1) To prepare ³⁵S-labeled binding proteins for analysis, mRNA was prepared as described above for RNA-protein fusion production but the linker ligation step was omitted. The mRNA was expressed using rabbit reticulocyte lysate translation kit (Ambion) in the presence of ³⁵S-labeled Met at 30° C. for 1 hour. Expressed protein was purified on M2-agarose Flag beads (Sigma) as described above. This procedure produced the encoded protein without the nucleic acid tail. In a direct binding assay, VEGF-R2-Fc fusions in concentrations ranging from 0 to 200 nM were added to a constant concentration of the purified protein (0.2 or 0.5 nM) and incubated at 30° C. for 1 hour in buffer B. The receptor-binder complexes were captured using Protein A magnetic beads for another 10 minutes at room temperature using a Kingfisher™ The beads were washed with six reaction volumes of buffer B. The protein was eluted from the beads with 100 μL of 0.1 M KOH. […] of the reaction mixture and elution were dried onto a LumaPlate-96 (Packard) and the amount of ³⁵S on the plate was measured using a TopCount NXT instrument (Packard). The amount of fibronectin-based scaffold protein bound to the target was estimated as a percent of radioactivity eluted from Protein A magnetic beads compare to radioactivity in the reaction mixture. Nonspecific binding of fibronectin-based scaffold proteins to the beads was determined by measuring binding in the absence of KDR-Fc and represented less than 1-2% of the input. Specific binding was obtained through subtraction of nonspecific binding from total binding. Data was analyzed using the GraphPad Prizm software (GraphPad Software, Inc, San Diego, Calif.), fitted using a one site, non-linear binding equation.

[2] = target: T2, human vascular endothelial growth factor receptor-2 Fc chimera (KDR-Fc) (human, UniProt P35968 20-764); assay: radioactive equilibrium binding assay, 1 nM KDR-Fc, % of input bound
T2 construct: range 1-764; also called human VEGFR-2; not shown: human IgG1 Fc
Description: as §1

T2 sequence (P35968 20-764 limits assumed, change not shown, form in doubt): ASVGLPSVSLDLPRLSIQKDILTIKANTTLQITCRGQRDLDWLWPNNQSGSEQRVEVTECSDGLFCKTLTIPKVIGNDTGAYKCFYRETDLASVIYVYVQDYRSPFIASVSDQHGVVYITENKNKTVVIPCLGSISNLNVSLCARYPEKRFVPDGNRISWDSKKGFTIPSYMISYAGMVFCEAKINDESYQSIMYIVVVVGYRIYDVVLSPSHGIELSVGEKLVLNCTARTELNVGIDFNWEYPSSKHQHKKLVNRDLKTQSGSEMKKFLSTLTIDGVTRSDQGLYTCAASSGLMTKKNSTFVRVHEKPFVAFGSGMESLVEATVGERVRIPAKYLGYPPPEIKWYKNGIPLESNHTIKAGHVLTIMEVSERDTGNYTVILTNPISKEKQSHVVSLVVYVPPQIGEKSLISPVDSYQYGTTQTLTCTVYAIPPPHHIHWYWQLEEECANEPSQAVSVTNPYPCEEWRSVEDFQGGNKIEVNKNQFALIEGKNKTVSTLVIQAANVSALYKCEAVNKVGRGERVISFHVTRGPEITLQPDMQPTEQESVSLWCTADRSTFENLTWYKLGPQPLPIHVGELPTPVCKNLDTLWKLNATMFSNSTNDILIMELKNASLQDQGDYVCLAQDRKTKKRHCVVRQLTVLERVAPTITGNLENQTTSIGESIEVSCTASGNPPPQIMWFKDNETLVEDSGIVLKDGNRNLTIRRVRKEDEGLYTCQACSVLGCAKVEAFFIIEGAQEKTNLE
T1 sequence (P35918 20-762, change not shown): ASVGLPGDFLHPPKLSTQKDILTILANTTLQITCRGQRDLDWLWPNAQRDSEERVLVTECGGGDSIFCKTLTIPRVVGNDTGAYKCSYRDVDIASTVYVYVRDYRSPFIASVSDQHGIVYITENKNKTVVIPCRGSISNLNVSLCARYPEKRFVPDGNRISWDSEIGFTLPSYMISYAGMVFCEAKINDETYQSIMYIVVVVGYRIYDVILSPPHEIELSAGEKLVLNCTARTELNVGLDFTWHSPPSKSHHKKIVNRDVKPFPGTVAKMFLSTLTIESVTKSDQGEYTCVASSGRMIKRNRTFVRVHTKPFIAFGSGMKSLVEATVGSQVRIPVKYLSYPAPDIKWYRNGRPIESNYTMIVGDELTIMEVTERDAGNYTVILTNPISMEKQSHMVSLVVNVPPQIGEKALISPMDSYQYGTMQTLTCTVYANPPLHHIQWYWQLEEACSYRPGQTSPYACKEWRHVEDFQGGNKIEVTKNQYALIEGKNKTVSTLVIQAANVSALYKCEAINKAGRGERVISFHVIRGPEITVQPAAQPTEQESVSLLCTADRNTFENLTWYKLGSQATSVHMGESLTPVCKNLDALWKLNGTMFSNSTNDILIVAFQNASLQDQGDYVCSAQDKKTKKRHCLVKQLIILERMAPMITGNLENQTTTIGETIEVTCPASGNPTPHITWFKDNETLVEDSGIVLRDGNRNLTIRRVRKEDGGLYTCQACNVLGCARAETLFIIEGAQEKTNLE

Row | Binder | Binding to 1 nM Flk-1, % [1] | Binding to 1 nM KDR, % [2]
1 | D11 (designed binder, 10Fn3 clone, Del 1-8) EVVAATPTSLLISWRHPHFPTRYYRITYGETGGNSPVQEFTVPLQPPTATISGLKPGVDYTITGYAVTVERNGHKLFTPISINYRT | 3% | 24%
2 | E13 (designed binder, 10Fn3 clone, Del 1-8) EVVAATPTSLLISWRHPHFPTRYYRITYGETGGNSPVQEFTVPLQPPTATISGLKPGVDYTITGYAVTLEQNGRELMTPISINYRT | 1% | 38%
3 | E10 (designed binder) EVVAATPTSLLISWRHPHFPTRYYRITYGETGGNSPVQEFTVPLQPPTATISGLKPGVDYTITGYAVTEGRNGRELFIPISINYRT | 3% | 53%
4 | D12 (designed binder, 10Fn3 clone, Del 1-8) EVVAATPTSLLISWRHPHFPTRYYRITYGETGGNSPVQEFTVPLQPPTATISGLKPGVDYTITGYAVTVERNGRKLMTPISINYRT | 47% | 46%
5 | E12 (designed binder, 10Fn3 clone, Del 1-8) EVVAATPTSLLISWRHPHFPTRYYRITYGETGGNSPVQEFTVPLQPPTATISGLKPGVDYTITGYAVTFARDGHEILTPISINYRT | 1% | 36%
6 | E8 (designed binder, 10Fn3 clone, Del 1-8) EVVAATPTSLLISWRHPHFPTRYYRITYGETGGNSPVQEFTVPLQPPTATISGLKPGVDYTITGYAVTEEWNGRVLMTPISINYRT | 10% | 51%

Second part, the binder after the results:

Row | Binding to 1 nM Flk-1, % [1] | Binding to 1 nM KDR, % [2] | Binder
7 | 0% | 35% | E16 (designed binder, 10Fn3 clone, Del 1-8) EVVAATPTSLLISWRHPHFPTRYYRITYGETGGNSPVQEFTVPLQPPTATISGLKPGVDYTITGYAVTVEENGRQLMTPISINYRT
8 | 2% | 52% | E15 (designed binder, 10Fn3 clone, Del 1-8) EVVAATPTSLLISWRHPHFPTRYYRITYGETGGNSPVQEFTVPLQPPTATISGLKPGVDYTITGYAVTLEPNGRYLMVPISINYRT
9 | 10% | 32% | E17 (designed binder, 10Fn3 clone, Del 1-8) EVVAATPTSLLISWRHPHFPTRYYRITYGETGGNSPVQEFTVPLQPPTATISGLKPGVDYTITGYAVTVEENGRVLNTPISINYRT
10 | 11% | 43% | E20 (designed binder, 10Fn3 clone, Del 1-8) EVVAATPTSLLISWRHPHFPTRYYRITYGETGGNSPVQEFTVPLQPPTATISGLKPGVDYTITGYAVTVERNGQVLYTPISINYRT
11 | 1% | 47% | E21 (designed binder, 10Fn3 clone, Del 1-8) EVVAATPTSLLISWRHPHFPTRYYRITYGETGGNSPVQEFTVPLQPPTATISGLKPGVDYTITGYAVTWGYKDHELLIPISINYRT
12 | 11% | 33% | E14 (designed binder, 10Fn3 clone, Del 1-8) EVVAATPTSLLISWRHPHFPTRYYRITYGETGGNSPVQEFTVPLQPPTATISGLKPGVDYTITGYAVTLERNGQVLFTPISINYRT
13 | 29% | 24% | E24 (designed binder, 10Fn3 clone, Del 1-8) EVVAATPTSLLISWRHPHFPTRYYRITYGETGGNSPVQEFTVPLQPPTATISGLKPGVDYTITGYAVTVERNDRVLFTPISINYRT
14 | 3% | 45% | E22 (designed binder, 10Fn3 clone, Del 1-8) EVVAATPTSLLISWRHPHFPTRYYRITYGETGGNSPVQEFTVPLQPPTATISGLKPGVDYTITGYAVTLGRNDRELLTPISINYRT
